Experimental findings from patent US20130059311A1, “METHOD FOR THE IDENTIFICATION OF MEMORY MODULATING COMPOUNDS BY ASSESSING KIBRA EXPRESSION” (SYGNIS BIOSCIENCE GMBH & CO KG, priority 2010, published 2013) are described below.

In one data set the target is T1, PKC zeta (Homo sapiens, UniProt Q05513).
T1 construct: expressed in transfected cells; host or cells: COS cells
T1 sequence (Q05513 1-592): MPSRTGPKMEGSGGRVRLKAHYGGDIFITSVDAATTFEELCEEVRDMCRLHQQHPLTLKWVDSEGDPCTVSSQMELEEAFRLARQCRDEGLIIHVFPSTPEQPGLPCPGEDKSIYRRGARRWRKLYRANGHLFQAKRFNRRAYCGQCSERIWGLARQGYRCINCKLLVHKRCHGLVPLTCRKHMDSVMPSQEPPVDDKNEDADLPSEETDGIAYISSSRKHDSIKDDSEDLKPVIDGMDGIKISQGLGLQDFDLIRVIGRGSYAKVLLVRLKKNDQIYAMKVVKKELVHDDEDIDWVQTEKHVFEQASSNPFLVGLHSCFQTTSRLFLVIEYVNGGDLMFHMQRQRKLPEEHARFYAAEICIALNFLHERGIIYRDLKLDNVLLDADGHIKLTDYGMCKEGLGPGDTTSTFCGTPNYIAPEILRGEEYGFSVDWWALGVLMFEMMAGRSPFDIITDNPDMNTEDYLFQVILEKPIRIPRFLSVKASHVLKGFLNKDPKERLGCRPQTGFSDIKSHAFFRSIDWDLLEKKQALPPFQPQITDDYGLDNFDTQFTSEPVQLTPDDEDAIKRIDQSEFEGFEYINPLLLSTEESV
Briefly: PKC zeta kinase activity assay on pulldowns from COS cells. The format is biochemical. Conditions: pulldowns from COS cells over-expressing PKC zeta and KIBRA vs PKC zeta alone. The method, then:
To investigate the impact of KIBRA on PKC zeta activity itself, PKC zeta activity were determined in an enzyme assay. The kinase activity in the assay is detected by the phosphorylation of a substrate peptide by an antibody reaction according to manufactures instruction (HTScan PKC zeta kinase assay kit, Cell Signaling Technology Inc., Danvers, Mass., USA). The antibody is detected by a lanthanide-labeled secondary antibody, which can be measured in a fluorescent plate reader.
In order to analyze PKC zeta activity with and without KIBRA, COS cells over-expressing PKC zeta alone or in combination with KIBRA were lysed and PKC zeta was pulled down with respective PKC zeta binding beads.
Previous studies have shown that PKC zeta co-immunoprecipitates with KIBRA, and immunoreactive bands for KIBRA in the western blot analysis confirmed that PKC zeta pulldowns include KIBRA protein from cells also over-expressing KIBRA. When pulldowns from cells over-expressing PKC zeta were compared to cells over-expressing both PKC zeta and KIBRA for the phosphorylation of substrate peptide in the activity assay, a strong increase of PKC zeta activity by 50% was observed. […] Analysis of the kinase activity of the truncated form confirmed that the phosphorylation of the peptide was only mediated by PKC zeta and no other kinase attached to the beads.

For data set [1], the system named is KIBRA (KIdney BRAin protein).

Regarding “KIBRA: KIBRA protein over-expressed in COS cells together with PKC zeta”, in the data set with PKC zeta, the “increase of PKC zeta activity” value is listed as 50%. For protein kinase C zeta, the “PKC zeta kinase activity (phosphorylation of substrate peptide, HTScan PKC zeta kinase assay kit) of PKC zeta pulldowns” value in data set [1] is reported as “a strong increase of PKC zeta activity by 50% was observed”.
